Experimental data: paper PMC8040517 (The Journal of Experimental Medicine, 2021)

Legend:
Assay in all cases: crystal structure
Settings in all cases: both partners purified
[1] = molecular target: TBEV^WE EDIII-His-Avitag (envelope domain III of tick-borne encephalitis virus, Western European subtype, … (Tick-borne encephalitis virus Western …, UniProt P14336))
[2] = molecular target: TBEV^Si EDIII (envelope domain III of tick-borne encephalitis virus, Siberian subtype, strain Vasilchenko), … (Tick-borne encephalitis virus Siberian …, UniProt Q9WBS4, strain)
[3] = molecular target: TBEV^FE EDIII-His-Avitag (envelope domain III of tick-borne encephalitis virus, Far Eastern subtype, strain … (Tick-borne encephalitis virus Far …, UniProt P07720, strain))

Measured: binding result

B1: T025 Fab (antigen-binding fragment of human antibody T025, IGVH3–30/IGVK3–15) (Fab, V domains shown)
VH: QVQLVESGGGVVQPGRSLRLSCAASGFTFSNYGMHWVRQAPGKGLDWVAVISYDAISKSYADSVEGRFTISRDNSKNTLYLQMNSLRAEDSAVYYCAKSPTAIDPPFDYWGQGTLVTVSS
VL: EIVMTQSPATLSVSPGERATLSCWASQSVSSNLAWYQQKPGQAPRLLIYGASTRATGIPARFSASGSGTEFTLTISSLQSEDFAVYYCQQYNNWPPRFGQGTKVEIK
notes: not shown: 6XHis, C-terminal, kept
binds: all assays above
